Substitutions are numbered along the chain they refer to.
B1: Aptamer 1723 (ssRNA)
RNA: CCGCCUUGCCAGUAUUGGCUUAGGCUGGAAGUUUGGCGG
modifications: 2'-F G except 2'-OMe G at 3,12,24,27,28,35,36,38,39; 2'-OMe A,C,U; 5' C6SH; 3' idT
B2: Aptamer 1721 (ssRNA)
RNA: B1 RNA
modifications: 2'-F G except 2'-OMe G at 3,12,27,35,36,38,39; 2'-OMe A,C,U; 5' C6SH; 3' idT
B3: Aptamer 1722 (ssRNA)
RNA: B1 RNA
modifications: 2'-F G except 2'-OMe G at 3,12,27,28,35,36,38,39; 2'-OMe A,C,U; 5' C6SH; 3' idT
B4: Aptamer 109 (ssRNA)
RNA: GGCCUUGCCCGUAUUGGCGAUGGCGGGAAGUUUGGCC
modifications: 2'-F G except 2'-OMe G in stem 1; 2'-OMe A,C,U; 5' C6NH2; 3' idT
B5: Aptamer 104 (ssRNA)
RNA: CGCCUUGCCAGUAUUGGCUUAGGCUGGAAGUUUGGCG
modifications: 2'-F G except 2'-OMe G in stem 1; 2'-OMe A,C,U; 5' C6NH2; 3' idT
B6: Aptamer 99 (ssRNA)
RNA: B5 RNA with U19G, U20A, A21U
modifications: 2'-F G except 2'-OMe G in stem 1; 2'-OMe A,C,U; 5' C6NH2; 3' idT
B7: Aptamer 107 (ssRNA)
RNA: B5 RNA with C3A, G35U
modifications: 2'-F G except 2'-OMe G in stem 1; 2'-OMe A,C,U; 5' C6NH2; 3' idT
B8: Aptamer 108 (ssRNA)
RNA: GCCUUGCGGGUAUUGGCGAUGGCCCGAAGUUUGGC
modifications: 2'-F G except 2'-OMe G in stem 1; 2'-OMe A,C,U; 5' C6NH2; 3' idT
B9: Aptamer 116 (ssRNA)
RNA: B1 RNA with U20G, U21A, A22U
modifications: 2'-F G except 2'-OMe G in stem 1; 2'-OMe A,C,U; 5' C6NH2; 3' idT
B10: Aptamer 98 (ssRNA)
RNA: B4 RNA
modifications: 2'-F G; 2'-OMe A,C,U; 5' C6NH2; 3' idT
B11: Aptamer 16 (ssRNA)
RNA: B5 RNA
modifications: 2'-F G; 2'-OMe A,C,U; 5' C6NH2; 3' idT
B12: Aptamer 92 (ssRNA)
RNA: B8 RNA
modifications: 2'-F G; 2'-OMe A,C,U; 5' C6NH2; 3' idT
B13: Aptamer 93 (ssRNA)
RNA: B8 RNA with C7A, G26U
modifications: 2'-F G; 2'-OMe A,C,U; 5' C6NH2; 3' idT
B14: C3 (ssRNA)
RNA: GGGAGUGUGUACGAGGCAUUAGGCCGCCACCUCGUUUGAUUGCGGUUGUUCGGCCGCGGGCGGCUUUGAUACUUGAUCGCCCUAGAAGC
modifications: 2'-F G; 2'-OMe A, C, U
B15: C1 (ssRNA)
RNA: GGGAGUGUGUACGAGGCAUUAGGCCGCCACCCAAACUGCAGUCCUCGUAAGUCUGCCUGGCGGCUUUGAUACUUGAUCGCCCUAGAAGC
modifications: 2'-F G; 2'-OMe A, C, U
B16: C2 (ssRNA)
RNA: GGGAGUGUGUACGAGGCAUUAGUCCGCCGAAGUCUUUUGGCUCGGUUUUUUCAAGGUCGGCGGCUUUGAUACUUGAUCGCCCUAGAAGC
modifications: 2'-F G; 2'-OMe A, C, U
B17: Aptamer 34 (ssRNA)
RNA: CAGCCGUGCUAGUAUUGGCAUUGGCUAGAAGUUAGGCUG
modifications: 2'-F G; 2'-OMe A,C,U; 5' C6NH2; 3' idT
B18: Aptamer 33 (ssRNA)
RNA: CAGCCAUGCAAGUAUUGGCUUAGGCUUGAAGUUCGGCUG
modifications: 2'-F G; 2'-OMe A,C,U; 5' C6NH2; 3' idT
B19: Aptamer 35 (ssRNA)
RNA: CCGCCUUGCGAGUAAUGGCGUAGGCUCGAAGUUGGGCGG
modifications: 2'-F G; 2'-OMe A,C,U; 5' C6NH2; 3' idT
B20: Aptamer 60 (ssRNA)
RNA: B5 RNA with U19G, U20A, A21U
modifications: 2'-F G; 2'-OMe A,C,U; 5' C6NH2; 3' idT
B21: Aptamer 39 (ssRNA)
RNA: CCGACUUGCCAGUAUUGGCGAUGGCUGGAAGUUUGUCGG
modifications: 2'-F G; 2'-OMe A,C,U; 5' C6NH2; 3' idT
B22: Aptamer 54 (ssRNA)
RNA: B21 RNA with C10G, A11G, U26C, G27C
modifications: 2'-F G; 2'-OMe A,C,U; 5' C6NH2; 3' idT
B23: Aptamer 68 (ssRNA)
RNA: B21 RNA with A21C
modifications: 2'-F G; 2'-OMe A,C,U; 5' C6NH2; 3' idT
B24: Aptamer 55 (ssRNA)
RNA: CGACUUGCGGGUAUUGGCGAUGGCCCGAAGUUUGUCG
modifications: 2'-F G; 2'-OMe A,C,U; 5' C6NH2; 3' idT
B25: Aptamer 40 (ssRNA)
RNA: CGCAUUGCUAGUAUUGGCUUAGGCUAGAAGUGUUGCG
modifications: 2'-F G; 2'-OMe A,C,U; 5' C6NH2; 3' idT
B26: Aptamer 88 (ssRNA)
RNA: B1 RNA with C4A, G36U
modifications: 2'-F G; 2'-OMe A,C,U; 5' C6NH2; 3' idT
B27: Aptamer 62 (ssRNA)
RNA: B21 RNA with U16A, G20U, A21C, U22A
modifications: 2'-F G; 2'-OMe A,C,U; 5' C6NH2; 3' idT
B28: Aptamer 36 (ssRNA)
RNA: B21 RNA with A14G, G20U, A21U
modifications: 2'-F G; 2'-OMe A,C,U; 5' C6NH2; 3' idT
B29: Aptamer 69 (ssRNA)
RNA: B21 RNA with A21C, U22A
modifications: 2'-F G; 2'-OMe A,C,U; 5' C6NH2; 3' idT
B30: Aptamer 71 (ssRNA)
RNA: B21 RNA with U22A
modifications: 2'-F G; 2'-OMe A,C,U; 5' C6NH2; 3' idT
B31: Aptamer 72 (ssRNA)
RNA: B21 RNA with G20U, A21C
modifications: 2'-F G; 2'-OMe A,C,U; 5' C6NH2; 3' idT
B32: Aptamer 66 (ssRNA)
RNA: B21 RNA with G20C, A21U, U22A
modifications: 2'-F G; 2'-OMe A,C,U; 5' C6NH2; 3' idT
B33: Aptamer 64 (ssRNA)
RNA: B1 RNA with C4A, G17A, G36U
modifications: 2'-F G; 2'-OMe A,C,U; 5' C6NH2; 3' idT
B34: Aptamer 38 (ssRNA)
RNA: CUGCCUUGCGGGUAUUGGCGUUGGCCCGAAGUUUGGCUG
modifications: 2'-F G; 2'-OMe A,C,U; 5' C6NH2; 3' idT
B35: Aptamer 59 (ssRNA)
RNA: B34 RNA with U2C, C4A, G36U, U38G
modifications: 2'-F G; 2'-OMe A,C,U; 5' C6NH2; 3' idT
B36: Aptamer 57 (ssRNA)
RNA: B34 RNA with U21A
modifications: 2'-F G; 2'-OMe A,C,U; 5' C6NH2; 3' idT
B37: P04 (PEGylated Aptamer 74) (ssRNA)
RNA: B1 RNA
modifications: as Aptamer 74 (2'-OMe G at 3,35,36,38,39; other G 2'-F; 2'-OMe A,C,U); 5' 40 kDa branched PEG via C6NH2; 3' idT

biological target: T1, complement Factor D (fD) (Homo sapiens, UniProt P00746 SEQ:1-228); assay: flow; bead-based direct binding; conditions: tags: His-tagged recombinant, bead-immobilized via His capture beads (flow) or anti-His Eu (TR-FRET); hairpin
T1 sequence (P00746 26-253): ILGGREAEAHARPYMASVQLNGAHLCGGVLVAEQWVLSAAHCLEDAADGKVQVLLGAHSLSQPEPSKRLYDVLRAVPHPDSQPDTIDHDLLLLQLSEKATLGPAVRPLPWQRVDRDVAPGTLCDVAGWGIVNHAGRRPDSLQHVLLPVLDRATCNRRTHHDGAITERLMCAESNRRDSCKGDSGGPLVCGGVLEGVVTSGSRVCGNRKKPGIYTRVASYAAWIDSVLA

Binder | Kd
B1 | 45 nM
B2 | 4.5 nM
B3 | 11 nM

biological target: T2, complement Factor D (fD) in C1q-depleted human serum (Homo sapiens, UniProt P00746 SEQ:1-228); assay: inhibition; hemolysis; conditions: protein: extract; tags: endogenous fD, about 9.6 nM in 10% serum; hairpin
Procedure: (§1) In V-bottom 96-well plates the following reagents were added to a final volume of 250 μL: appropriate volume of 1× Veronal buffer with 0.1% gelatin, 100 μL aptamer, 30 μL of C1q-depleted human serum and 20 μl RBCs. This mixture was incubated for 25 minutes at room temperature, then the reaction was stopped by the addition of 5 μL of 500 mM EDTA. The plate was centrifuged for 5 minutes at 500×g at room temperature, then 100 μL of supernatant was removed and the extent of RBC lysis was determined by measuring absorbance at 405 nm.
The following nine aptamers with 2′OMe-Gs in Stem 1 (S1) were synthesized: Aptamer 76 (2′OMe-Gs substituted in Stem 1 (S1) of Aptamer 39), Aptamer 116 (Aptamer comprising loop 2 (L2) of Aptamer 39 and Stem 1 (51) of Aptamer 15 with 2′OMe-Gs in Stem 1 (S1)), Aptamer 102 (4 base pair 2′OMe-G Stem 1 (S1) variant of Aptamer 76), Aptamer 104 (4 base pair 2′OMe-G Stem 1 (S1) variant of Aptamer 74), Aptamer 106 (Aptamer 88 with 2′OMe-G Stem 1 (S1)), Aptamer 107 (4 base pair 2′OMe-G Stem 1 (S1) variant of Aptamer 88), Aptamer 108 (3 base pair 2′OMe-G Stem 1 (S1) variant of Aptamer 92), Aptamer 109 (4 base pair 2′OMe-G Stem 1 (S1) variant of Aptamer 98) and, Aptamer 99 (4 base pair 2′OMe-G Stem 1 (S1) variant of Aptamer 60).

T2 sequence (P00746 26-253): as above

Binder | IC50
B4 | < 10 nM
B5 | < 10 nM
B6 | < 10 nM
B7 | < 10 nM
B8 | < 10 nM
B9 | < 10 nM

biological target: T2, complement Factor D (fD) in …; assay: inhibition; hemolysis; conditions: protein: extract; tags: endogenous fD, about 9.6 nM in 10% serum; hairpin; remark: another data set of the same source
Procedure: as §1
To this end, series of aptamer variants were designed based on the loop L2 sequences for Aptamers 15, 39, and 38 in which the sequence of S1 and S2 were altered while maintaining pairing (Table 17). These included Aptamers 90, and 94-98. Additionally, a truncate of Aptamer 38 (Aptamer 91) was designed with 3 base pairs in stem S1. The stem elements (S1 and S2) from this molecule were also used to generate Aptamer 92, which contained L2 from Aptamer 39.

Binder | IC50
B10 | < 10 nM
B11 | < 10 nM
B12 | ~10 nM
B13 | ~100 nM

biological target: T1, complement Factor D (fD); assay: SPR; conditions: tags: amine-coupled to dextran chip for SPR; free in esterase assay; hairpin
Procedure: The binding affinity of aptamers for fD was determined by surface plasmon resonance (SPR) on a Reichert4 SPR System, where either aptamer or fD was immobilized as ligand on a solid surface and the interactant analyte was flowed in solution over the immobilized ligand (Table 20).

Binder | Kd
B4 | 1.07 nM
B5 | 3.9 nM
B6 | 3.34 nM
B7 | 4.2 nM
B8 | 2.7 nM

biological target: T1, complement Factor D (fD); assay: competition; signal reduced about 75-90% by 100 nM AFD anti-fD Fab; SB1T, 37 C; conditions: tags: His-tagged, immobilized on magnetic His capture beads; label: Dy650 via hybridized 2'-OMe reverse oligo
Procedure: Competition binding assays were performed using a clone of an anti-fD Fab with an amino acid sequence of heavy chain variable region according to SEQ ID NO:7 and light chain variable region according to SEQ ID NO:8 (hereinafter, “AFD”) to further assess binding. For the competition assays, beads labelled with fD were first incubated with 50 nM round or individual aptamer, in 50 μl SB1T (with ssDNA and BSA), for 30 minutes at 37° C. The beads were then washed with SB1T to remove unbound aptamers and incubated with or without 100 nM AFD for 30 minutes at 37° C. Following incubation, the beads were washed three times with SB1T, and assayed by flow cytometry (FIG. 12). […] In cases where aptamers are sufficiently outcompeted by AFD as described above, such aptamers were presumed to be binding to the exosite or the self-inhibitory loop of fD.

Binder | binding result
B14 | binds
B15 | binds
B16 | binds

biological target: T2, complement Factor D (fD) in …; assay: inhibition; hemolysis; conditions: protein: extract; tags: endogenous fD, about 9.6 nM in 10% serum; hairpin; remark: another data set of the same source

Binder | IC50
B17 | 6.9 nM
B18 | 11 nM
B19 | 5.4 nM
B20 | < 10 nM
B21 | 3.1 nM
B22 | ~10 nM
B23 | ~10 nM
B24 | ~10 nM
B25 | 5.8 nM
B26 | < 10 nM
B27 | ~10 nM
B28 | 8.2 nM
B29 | < 10 nM
B30 | < 10 nM
B31 | ~100 nM
B32 | ~100 nM
B33 | ~100 nM
B34 | 5.5 nM
B35 | < 10 nM
B36 | ~10 nM

biological target: T2, complement Factor D (fD) in …; assay: inhibition; hemolysis, sd 0.8; conditions: protein: extract; tags: endogenous fD, about 9.6 nM in 10% serum; hairpin
Procedure: as §1
The potency of the PEG-aptamers P01, P04, P06, P07 and P08 compared to their non-pegylated counterparts was determined in the alternative complement-dependent hemolysis assay as described in Example 2.

Binder | IC50
B37 | 3.2 nM

Source: patent publication US20190032056, “STEM-LOOP COMPOSITIONS AND METHODS FOR INHIBITING FACTOR D” (Vitrisa Therapeutics, Inc., published 2019)
